Data from patent US20210380703A1.

B1: 367_B08 (antibody, V domains shown)
VH: EVQLLESGGGLVQPGGSLRLSCAASGFTFSDYGMNWVRQAPGKGLEWVSGINYNGGYKGYADSVKGRFTISRDNSKNTLYLQMNSLRAEDTAVYYCARSANWHDTALDYWGQGTLVTVSS
VL: DIQMTQSPSSLSASVGDRVTITCRASQSILTYLNWYQQKPGKAPKLVIYAATSRASGVPSRFSGSGSGTDFTLTISSLQPEDFATYYCQQSYDNPLTFGGGTKVEIK
B2: 374_H04 (antibody, V domains shown)
VH: EVQLLESGGGLVQPGGSLRLSCAASGFTFDSYSMNWVRQAPGKGLEWVSGINYNSGYTSYADSVKGRFTISRDNSKNTLYLQMNSLRAEDTAVYYCARSANWHDTALDYWGQGTLVTVSS
VL: DIQMTQSPSSLSASVGDRVTITCRASQSILTYLNWYQQKPGKAPKLLIYAATSRASGVPSRFSGSGSGTDFTLTISSLQPEDFATYYCQQSYDNPLTFGGGTKVEIK
B3: 374_F11 (antibody, V domains shown)
VH: EVQLLESGGGLVQPGGSLRLSCAASGFTFDSYSMNWVRQAPGKGLEWVSNINYNGGYTGYADSVKGRFTISRDNSKNTLYLQMNSLRAEDTAVYYCARSANWHDTALDYWGQGTLVTVSS
VL: DIQMTQSPSSLSASVGDRVTITCRASQSILSYLNWYQQKPGKAPKLLIYAVTSLASGVPSRFSGSGSGTDFTLTISSLQPEDFATYYCQQSYESPLTFGGGTKVEIK
B4: 374_E08 (antibody, V domains shown)
VH: EVQLLESGGGLVQPGGSLRLSCAASGFTFSSYGMNWVRQAPGKGLEWVAGINYNGGYKSYADSVKGRFTISRDNSKNTLYLQMNSLRAEDTAVYYCARSANWHDTALDYWGQGTLVTVSS
VL: DIQMTQSPSSLSASVGDRVTITCRASQSILSYLNWYQQKPGKAPKLLIYAATSRHSGVPSRFSGSGSGTDFTLTISSLQPEDFATYYCQQSYDLPLTFGGGTKVEIK
B5: 374_H03 (antibody, V domains shown)
VH: EVQLLESGGGLVQPGGSLRLSCAASGFTFSSYGMNWVRQAPGKGLEWVSGINYNSGYKSYADSVKGRFTISRDNSKNTLYLQMNSLRAEDTAVYYCARSANWHDTALDYWGQGTLVTVSS
VL: DIQMTQSPSSLSASVGDRVTITCRASQSILSYVNWYQQKPGKAPKLVIYAATSRASGVPSRFSGSGSGTDFTLTISSLQPEDFATYYCQQSYDSPLTFGGGTKVEIK
B6: 374_F04 (antibody, V domains shown)
VH: EVQLLESGGGLVQPGGSLRLSCAASGFTFSSYGMNWVRQAPGKGLEWVSGINYNSGYKSYADSVKGRFTISRDNSKNTLYLQMNSLRAEDTAVYYCARSANWHDTALDYWGQGTLVTVSS
VL: DIQMTQSPSSLSASVGDRVTITCRASQSILTYVNWYQQKPGKAPKLLIYAATSRASGVPSRFSGSGSGTDFTLTISSLQPEDFATYYCQQSYNSPLTFGGGTKVEIK
B7: 374_F10 (antibody, V domains shown)
VH: EVQLLESGGGLVQPGGSLRLSCAASGFTFSSYSMNWVRQAPGKGLEWVSGINYNGGYTSYADSVKGRFTISRDNSKNTLYLQMNSLRAEDTAVYYCARSANWHDTALDYWGQGTLVTVSS
VL: DIQMTQSPSSLSASVGDRVTITCRASQSILSYLNWYQQKPGKAPKLVIYAATSRASGVPSRFSGSGSGTDFTLTISSLQPEDFATYYCQQSYDNPLTFGGGTKVEIK
B8: 374_H06 (antibody, V domains shown)
VH: EVQLLESGGGLVQPGGSLRLSCAASGFTFSSYGMNWVRQAPGKGLEWVSNINYNGGYTGYADSVKGRFTISRDNSKNTLYLQMNSLRAEDTAVYYCARSANWHDTALDYWGQGTLVTVSS
VL: DIQMTQSPSSLSASVGDRVTITCRASQSIVSYVNWYQQKPGKAPKLVIYAATSRASGVPSRFSGSGSGTDFTLTISSLQPEDFATYYCQQSYNLPLTFGGGTKVEIK
B9: 374_E02 (antibody, V domains shown)
VH: EVQLLESGGGLVQPGGSLRLSCAASGFTFSSYSMNWVRQAPGKGLEWVSGINYNGGYTSYADSVKGRFTISRDNSKNTLYLQMNSLRAEDTAVYYCARSANWHDTALDYWGQGTLVTVSS
VL: DIQMTQSPSSLSASVGDRVTITCRASQSILSYLNWYQQKPGKAPKLLIYAATSLASGVPSRFSGSGSGTDFTLTISSLQPEDFATYYCQQSYDLPLTFGGGTKVEIK
B10: 374_E05 (antibody, V domains shown)
VH: EVQLLESGGGLVQPGGSLRLSCAASGFTFSSYSMNWVRQAPGKGLEWVAGINYNGGYTSYADSVKGRFTISRDNSKNTLYLQMNSLRAEDTAVYYCARSANWHDTALDYWGQGTLVTVSS
VL: DIQMTQSPSSLSASVGDRVTITCRASQSILSFVNWYQQKPGKAPKLVIYAATSRASGVPSRFSGSGSGTDFTLTISSLQPEDFATYYCQQSYNLPLTFGGGTKVEIK
B11: 374_F02 (antibody, V domains shown)
VH: EVQLLESGGGLVQPGGSLRLSCAASGFTFDSYSMNWVRQAPGKGLEWVANINYNSGYTSYADSVKGRFTISRDNSKNTLYLQMNSLRAEDTAVYYCARSANWHDTALDYWGQGTLVTVSS
VL: DIQMTQSPSSLSASVGDRVTITCRASQSIVSYLNWYQQKPGKAPKLLIYAASSLQSGVPSRFSGSGSGTDFTLTISSLQPEDFATYYCQQSYELPLTFGGGTKVEIK
B12: 374_G07 (antibody, V domains shown)
VH: EVQLLESGGGLVQPGGSLRLSCAASGFTFSSYSMNWVRQAPGKGLEWVSGINYNSGYKSYADSVKGRFTISRDNSKNTLYLQMNSLRAEDTAVYYCARSANWHDTALDYWGQGTLVTVSS
VL: DIQMTQSPSSLSASVGDRVTITCRASQSIISYLNWYQQKPGKAPKLLIYAATSRASGVPSRFSGSGSGTDFTLTISSLQPEDFATYYCQQSYDSPLTFGGGTKVEIK
B13: 374_G04 (antibody, V domains shown)
VH: EVQLLESGGGLVQPGGSLRLSCAASGFTFSSYSMNWVRQAPGKGLEWVAGINYNGGYTGYADSVKGRFTISRDNSKNTLYLQMNSLRAEDTAVYYCARSANWHDTALDYWGQGTLVTVSS
VL: DIQMTQSPSSLSASVGDRVTITCRASQSILTYLNWYQQKPGKAPKLVIYAATSLASGVPSRFSGSGSGTDFTLTISSLQPEDFATYYCQQSYDNPLTFGGGTKVEIK
B14: 374_G06 (antibody, V domains shown)
VH: EVQLLESGGGLVQPGGSLRLSCAASGFTFSSYGMHWVRQAPGKGLEWVASINYNGGYTSYADSVKGRFTISRDNSKNTLYLQMNSLRAEDTAVYYCARSANWHDTALDYWGQGTLVTVSS
VL: DIQMTQSPSSLSASVGDRVTITCRASQSILSYLNWYQQKPGKAPKLLIYAVTSRASGVPSRFSGSGSGTDFTLTISSLQPEDFATYYCQQSYDLPLTFGGGTKVEIK
B15: 374_F01 (antibody, V domains shown)
VH: EVQLLESGGGLVQPGGSLRLSCAASGFTFDSYSMNWVRQAPGKGLEWVSNINYNGGYTGYADSVKGRFTISRDNSKNTLYLQMNSLRAEDTAVYYCARSANWHDTALDYWGQGTLVTVSS
VL: DIQMTQSPSSLSASVGDRVTITCRASQSILSYVNWYQQKPGKAPKLVIYAATSRHSGVPSRFSGSGSGTDFTLTISSLQPEDFATYYCQQSYENPLTFGGGTKVEIK
B16: 374_E11 (antibody, V domains shown)
VH: EVQLLESGGGLVQPGGSLRLSCAASGFTFSSYGMNWVRQAPGKGLEWVSNINYNGGYTSYADSVKGRFTISRDNSKNTLYLQMNSLRAEDTAVYYCARSANWHDTALDYWGQGTLVTVSS
VL: DIQMTQSPSSLSASVGDRVTITCRASQSIVTYLNWYQQKPGKAPKLVIYAATSRASGVPSRFSGSGSGTDFTLTISSLQPEDFATYYCQQSYDSPLTFGGGTKVEIK

The binders below were run against Human Fc (human) (assay: ELISA; negative control).

**Q.** Which optical density does the source give for B1 here?
**A.** Its optical density is 0.37 OD.

Each binder was assayed against human Fc (human) (assay: ELISA; negative control).

**Q.** B2 was tested. Which optical density did it give?
**A.** Its optical density is 0.167 OD.

**Q.** Which optical density does the source give for B3 here?
**A.** The optical density was 0.191 OD.

**Q.** Which optical density does the source give for B4 here?
**A.** The optical density was 0.251 OD.

**Q.** B5 was tested. Which optical density did it give?
**A.** Its optical density is 0.162 OD.

**Q.** With B6 as the binder, how does the optical density read?
**A.** Its optical density is 0.163 OD.

**Q.** How did the optical density turn out when B7 was run?
**A.** The optical density was 0.524 OD.

**Q.** Which optical density does the source give for B8 here?
**A.** Its optical density is 0.166 OD.

**Q.** For B9, which optical density is on record?
**A.** Its optical density is 0.527 OD.

**Q.** For B10, which optical density is on record?
**A.** Its optical density is 0.244 OD.

**Q.** For B11, which optical density is on record?
**A.** The optical density was 0.169 OD.

**Q.** How did the optical density turn out when B12 was run?
**A.** Its optical density is 0.214 OD.

**Q.** B13 was tested. Which optical density did it give?
**A.** Its optical density is 0.161 OD.

**Q.** For B14, which optical density is on record?
**A.** Its optical density is 0.25 OD.

**Q.** Which optical density does the source give for B15 here?
**A.** The optical density was 0.165 OD.

**Q.** How did the optical density turn out when B16 was run?
**A.** The optical density was 0.186 OD.
